# According to the nanobody polyreactivity screen of Harvey et al. (2022):
# Assay: yeast display, Sf9 membrane polyspecificity reagent, FACS + sequencing; frameworks hold sequencing errors
# Outline: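 A nanobody's polyreactivity label depends on the gate it was sorted from. Yeast display cells were stained with 10% biotinylated, detergent-solubilized Sf9 membrane reagent for 1 hour at 4 °C, enriched on streptavidin microbeads and sorted by FACS. The low and high (top ~1%) gates were set on anti-HA fluorescence for expression and streptavidin fluorescence for reagent binding.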
row,Sequence,polyreactivity (PSR sort gate)
1,QVQLVESGGGIVQAGGSLRLSCAASGLIFSRYTMGWYRQAPAKEMELVAAISGRGTSTYYAYSVKGRFTISRDNAKNTVYLLMNSLKPEDTAVYYCATSKSYSAFDYWGQGTQVTVSS,high polyreactivity
2,QVQLVESGGGIVQAGGSLRLSCAASGLIFYTYAMGWYRQAPGKEREIVAAISRRGGSTYYADSVKGRFTISRDNAKNTVYLQMNSLKPEDTAVYYCNARGGRYGTYSHYGYWGQGTQVTVSS,high polyreactivity
3,QVQLVESGGGIVQAGGSLRLSCAASGLTFGFNAKGWYTQAPGQERELVATIDLNGGSTTYADSVKGRFTLSRDNAKNTVYLQMNSLKPEDTAVYYCAAQTGFVSHFFSHYDYGGQGTQVTVSS,low polyreactivity
4,QVQLVESGGGIVQAGGSLRLSCAASGLTFVNYAMGSYRQAPGKERELVAAITVNGGRTYYADSVKGRFTISRDNAKNTVYLQMFSLKPEDTAVYFCAAVYYRHGYTYSSDYWGQGTQVTVSS,high polyreactivity
5,QVQLVESGGGIVQAGGSLRLSCAASGNIFPYYDMGWYRPAPGKERELVAAITSSASGTYYADSVKGRFTISRDNAKNTVYLQMNSLKPEDTAVYYCAAGVFFFTFDYWGQGTQVTVSS,low polyreactivity
6,QVQLVESGGGIVQAGGSLRLSCAASGNTFNFYAMGWYRQAPGKERELVASITSGGGTNYADSVKGRFTISRDNAKNTVYLQMNSLKPEDTAVYYCADQFYYHFRYHFDWGLGTQVTVSS,low polyreactivity
7,QVQLVESGGGIVQAGGSLRLSCAASGNTYRWYAMGWNIQAPGKEREFVADITVRGGSTYYADSVKGRFTISRDNAKNTVYLQMNSLKPEDTAVYYCAADYRYGGSRGYRYDYWGQGTQVTVSS,low polyreactivity
8,QVQLVESGGGIVQAGGSLRLSCAASGRIFGGNSMGWYRQAPGKERELVAAITTSGGSTYYADSVKGRFTISRDNAKNTVYLQMNSLKPEDTAVYSCAAGIGDSYWYRRYGYWGQGTQVTVSS,low polyreactivity
9,QVQLVESGGGIVQAGGSLRLSCAASGRIFGHYAMGWYRPAPGKERELVAAITKNGDSTYYADSVKGRFTISRDNAKNRVYLPMNSLKPEDTAVYYCNAVYDLVCGEGYDSWGQGTQVTVSS,low polyreactivity
10,QVQLVESGGGIVQAGGSLRLSCAASGRIFGWYAMGWYREAPGKERELVAAISSGGRTKYADSVKGRFTISRDNAKNTVYLQMNSLKAEDTAVYYCNARRSYLPYKFGYDYWGQGTQVTVSS,low polyreactivity
11,QVQLVESGGGIVQAGGSLRLSCAASGRIFKYNAMGWYRQAPGKERELVAAISWSDGSTYYADSVKGRFTISRDNAKNTVYLQMNSLKPEDTAVYYCAARGYGFPELDYWGQGTQVTVSS,high polyreactivity
12,QVQLVESGGGIVQAGGSLRLSCAASGRIFQFYAMGWYRQAPGKERELVAGITTSGGSTYYADSVKGRFTISRDNAKNTVYLQMNSLKPEDTAVYYCAASRHFARHRGYYFRYDYWGQGTQVTVSS,high polyreactivity
13,QVQLVESGGGIVQAGGSLRLSCAASGRIFQYYAMGWYRQAPGKERELVASISGRGGRTYYADSVKGRFTISRDNAKNTVYLQMNSLKPEDTAVYYCNAVFSTIRYIRSYNYWGQGTQVTVSS,high polyreactivity
14,QVQLVESGGGIVQAGGSLRLSCAASGRIIGYYAMGWYIQAPGKERELVARISSSGGSTYYADSVKGRFTISRDNAKNTVYLQMNSLKPEVTAVYYCNTASNRFPGWRAEFDYWGQGTQVTVSS,low polyreactivity
15,QVQLVESGGGIVQAGGSLRLSCAASGRTFAVYAMGWYRQAPGKERELVAAINSSGRTDYADSVKGRFTISRDNAKNTVYLQMNSLKPEDTAVYYCNADFYFRRYRYRYNYWGQGTQVTVSS,high polyreactivity
16,QVQLVESGGGIVQAGGSLRLSCAASGRTFRINGMGWYRQAPGKERELIAAISDGGSTNYADSVKGRFTISRDNAKNTVYLQMNSLKPEDTAVYYCAVDPYYFFYDEWLGDPNFDYWGQGTQVTVSS,low polyreactivity
17,QVQLVESGGGIVQAGGSLRLSCAASGRTFRRYVMGWYRQAPGKERELVAAITVSGGNTYYADSVKGSFTISRDNAKNTVYLQMNSLKPEDTAVYYCNADAGAIYYRRYHFYYWGQGTQVTVSS,low polyreactivity
18,QVQLVESGGGIVQAGGSLRLSCAASGRTFRSNVMGWYRQAPGKERELVAAISWRGGNTHYADSVKGRFTISRDNAKNTVYLQMNSLKREDTAVFYCAARVTSRRDPDQIHGYWGQGTQVTVSS,high polyreactivity
19,QVQLVESGGGIVQAGGSLRLSCAASGRTFRYNTMGSYRQAPGKERELVAAINSRGGSTYYADSVKGRFTISRDNAKNTVYLQMNSLKPEDTAVYYCAALTRYNTASGYDYWGQGTQVTVSS,high polyreactivity
20,QVQLVESGGGIVQAGGSLRLSCAASGRTFSSYARGWYRQAPGKERELVAAISSDGVDTYYADSVKGRFTISRDNAKNTVYLQMNSLKPEDTAVYYCNAEEGGPEYAYSYYRMDYWGQGTQVTVSS,low polyreactivity
21,QVQLVESGGGIVQAGGSLRLSCAASGRTFYANAMGWYRQAPGKERELVAAISTVGDGTYYADSVKGRFTISRDNAKYTVYLQMNSLKPEDTAVYYCAVRHRASGILYDYWRQGTQVTVSS,low polyreactivity
22,QVQLVESGGGIVQAGGSLRLSCAASGRTFYSSAMGWYRQAPGKERALVAAITSDGGTYYADSVKGRFTISRDNAKNTVYLQMNSLKPEDTAVYYCNTRDLYGYPQVTGYDYWGQGSQVTVSS,low polyreactivity

row,Sequence,polyreactivity (PSR sort gate)
1,QVQLVESGGGIVQAGGSLRLSCAASGRTLQRNAMGWYRQAPGKERELVAAISWSGASTYYADSVKGRFTISRDNAKNTVYLQMNSLKPEDTAVYYCAATYIDRGNIYDYWGQGTQVTVSS,high polyreactivity
2,QVQLVESGGGIVQAGGSLRLSCAASGSIFDVYAMGWYRQAPGKERELVAAITWRGGNTYYADSVKGRFTISRDNAKNTVYLQMNSLKPEDTAVYYCNALHRIRYTPSSRYDYWGQGTQVTVSS,low polyreactivity
3,QVQLVESGGGIVQAGGSLRLSCAASGSIFHYYAMGWYRQAPGKESELVAAISWSGGRTNYADSVKGRFTISRDNAKNTVYLQMNSLKPEDTAVYYCAAAERSFSGGGKIGKYYYWGQGTQVTVSS,high polyreactivity
4,QVQLVESGGGIVQAGGSLRLSCAASGSIFLYYAMGWYRQAPGKERELVAPIRGSGSSTYYADSVKGRFTISRDNAKNTVYLQMNSLKPEDTAVYYCSAKGYRWFRHGGYYFKFDYWGQGTQVTVSS,high polyreactivity
5,QVQLVESGGGIVQAGGSLRLSCAASGSIFPDNAMGWYRQAPGKERELVAAIDKGTGSTNYADSVKGRFTISRDNAKNTVYLQMNSLKPEDTAVYYDYWGQGTQVSVSS,low polyreactivity
6,QVQLVESGGGIVQAGGSLRLSCAASGSIFPDNTMGWYRQAPGKERELVAAITGDGSTYYADSVKGRFTISRDNAKNTVYLERNSLKPEDTAVYYCAAASPSWSYWPRDYWGQGTQVTVSS,low polyreactivity
7,QVQLVESGGGIVQAGGSLRLSCAASGSIFSYYAMGWYRQAPGKERELVAAITSGGATTYYADSVKGRFTISRDNAKNTVYLQMNSLKPEDTAVYYCAAGYYVYYRWWELDYWGQGTQVTVSS,low polyreactivity
8,QVQLVESGGGIVQAGGSLRLSCAASGSISVPYGMGWYRPAPGKERELVAAITGGSTYYADSVKGRFTISRDNAKNTVYLQMNSLIPEDTAVYYCFDVNTDVLSRVYRGWGYYYWGQGTQVTVSS,low polyreactivity
9,QVQLVESGGGIVQAGGSLRLSCAASGSNFVVNAMGWYRQAPGKERELVAAITQSGGSTFYADSVKGRFTISRDNAKNTVYLQMNSLIPEDTAVYYWGQGTQVTVSS,low polyreactivity
10,QVQLVESGGGIVQAGGSLRLSCAASGSTFAANAMGWYRPAPGKERELVAAITSGGGSTYYADSVKGRFTISRDNAKNTVYLQMNSLKPEDTAVYYCNAADWLETQVDLDYWGQGTQVTVSS,low polyreactivity
11,QVQLVESGGGIVQAGGSLRLSCAASGSTFFSYAMGLYRQAPGKERELVAGIDWNGGDTNYADSVKGRFTISRDNAKNTVYLQMNSLKPEETAVYYCATDYSFPGPFRRRERFDYWGQGTQVTVSS,low polyreactivity
12,QVQLVESGGGIVQAGGSLRLSCAASGSTFGFYAMGWYRQAPGKERELVAAISSAARTYYADSVKGRFTISRDNAMNTVYLQMNSMKPEDTAVYYCSAEAYHWTSYIGYGGVYYWGQGTKVTVSS,low polyreactivity
13,QVQLVESGGGIVQAGGSLRLSCAASGSTFGGNAMGWYRQAPGKERELVAAITSGTGTHYADSVKGRFTISRDNAKNTVYLQMNSLKPEATAVYFCAAEVWSWAGIWGYEYWGQGTQVSVSS,low polyreactivity
14,QVQLVESGGGIVQAGGSLRLSCAASGSTFLTNTMGWYRQAPGTESELVAAITLRGGRTYYADSVKGRFTISRDNAKNTVYLQMNSLKPEDTAVYYCNARNYYYPSDRDYWGQGTQVTGSS,low polyreactivity
15,QVQLVESGGGIVQAGGSLRLSCAASGSTFPPNAMGWYRQAPGKERELVAGINGSGGRTYYADSVKGRFTISRDNAKNTVYLQMNSLKPVDTAVYYCATRLRSEYYYNKWYYHWGQGTQVTVSS,high polyreactivity
16,QVQLVESGGGIVQAGGSLRLSCAASGSTFRRYAMGWYRQAPGKERELVASISWSGGSTSYADSVKGRFTISRDNAKNTVYLQMNSLKPEDTAGYYCAAVRYYWGEYYARYAYEYWGQGTQVTVSS,high polyreactivity
17,QVQLVESGGGIVQAGGSLRLSCAASGSTFWFNDMGWYRAAPGKEREFVAAISSSGGSTYYADSVKGRFTISRDNAKNTVYVQMNSLKPEDTAVYYWAVEVVRDYRYADWGQGTQVTVSS,low polyreactivity
18,QVQLVESGGGIVQAGGSLRLSCAASGSTFYLYAMGWYRQAPGKERELVAAISTVGSTNYADSVNGRFTISRDNAKNTVYLQMNSLKPEDTAVYYCNAEYYGVVEYDYWGHGTQVTVSS,low polyreactivity
19,QVQLVESGGGIVQAGGSLRLSCAASGSTFYVYALGWYRQAPGKERELVAAINFNGGGTYYADSVKGRFTISRDNAKNTVYLQMNRLKPEDTAVYYCNAEDDYTYDRSFGGYKYDYWGQGTQVTVSS,low polyreactivity
20,QVQLVESGGGIVQAGGSLRLSCAASGSTLFGDAMGLYRQAPGKERELVAAINRRGSTNYADSVKGRFTISRDNAKNTVYLKMNCLKPEDTAVYYCAAYIYKTYRYYYWGQGTQVTVSS,high polyreactivity
21,QVQLVESGGGIVQAGGSLRLSCAASGYTFTGYSMGWYRQAPGKEREFVAGITWRTGRTYYADSVKGRFTISRDNAKNNVYLQMNSLKREDTAVYFCYKDHQRRYYWSYDYWGQGTQVTVSS,low polyreactivity
